B1: chBG138P (antibody, V domains shown)
VH: QVQLLQSGAELARPGASVKMSCKASGYTFTTYTMHWIKQRPGQGLEWIGYINPGSDYTHYNQKFKDKATLTADKSSSTAYMHLYSLTSEDSAVYYCARQGNYAAYYFDYWGQGTTLTVSS
VL: DIQMTQSPASLSASVGETVTITCRASGNIHNFLVWYQQKQGKSPQLLVYNAKTLTDGVPSRFSGSGSGTQYSLKIKSLQPEDFGTYYCQNFWNVPFTFGSGTKLEIK
B2: chBG219P (antibody, V domains shown)
VH: EVQLVESGGGLVKPGGSLKLSCAASGFTFNDYIMSWVRQTPEKRLEWVATVSSGGDNTYYPDSVKGRFTISRDNAKNNLYLQMSSLRSEDTALYYCTRYGGLGAMDYWGQGTSVTVSS
VL: DIVMTQSPASLSASVGETVTITCRASGNIHNYLTWYQQKQGKSPQLLVYNAKTLADGVPSRFSGSGSGPQYSLKINSLQPEDFGSYYCQHFWSVPYTFGGGTRLEIK
B3: chBG346P (antibody, V domains shown)
VH: EVQLQQSGAELVKPGASVKISCKASGYTFTNYWMNWVRQRPGQGLEWIGEIDPSDSYTNNNQKFKDKATLTVDKSSSTAYMQLSSLTSEDSAVYYCARGRRTGFAYWGQGTLVTVSS
VL: DIQMTQSPASLSVSVGETVTITCRASENIYSNLAWYQKKQGKSPQLLVYAATNLADGVPSRFSGSGSGTQYSLKINSLQSEDFGNYYCQHFWGTPYTFGGGTKLEIK
B4: BG138P-Bz4 (antibody, human IgG1, V domains shown)
VH: QVQLVQSGAEVKKPGASVKVSCKASGYTFTTYTMHWIKQAPGQGLEWMGYINPGSDYTHYNQKFKDKATLTADKSASTAYMELYSLRSEDTAVYYCARQGNYAAYYFDYWGQGTLVTVSS
VL: DIQMTQSPSSLSASVGDRVTITCRASGNIHNFLVWYQQKPGKSPKLLVYNAKTLTDGVPSRFSGSGSGTQYSLTISSLQPEDVATYYCQNFWNVPFTFGSGTKLEIK
B5: BG138P-Bz14 (antibody, human IgG1, V domains shown)
VH: QVQLVQSGAEVKKPGASVKVSCKASGYTFTTYTMHWIKQAPGQGLEWIGYINPGSDYTHYNQKFKDKATLTADKSASTAYMELYSLRSEDTAVYYCARQGNYAAYYFDYWGQGTLVTVSS
VL: DIQMTQSPSSLSASVGDRVTITCRASGNIHNFLVWYQQKPGKSPKLLVYNAKTLTDGVPSRFSGSGSGTQFSLTISSLQPEDVATYYCQNFWNVPFTFGSGTKLEIK
B6: BG138P-Bz13 (antibody, human IgG1, V domains shown)
VH: QVQLVQSGAEVKKPGASVKVSCKASGYTFTTYTMHWIKQAPGQGLEWIGYINPGSDYTHYNQKFKDKATLTADKSASTAYMELYSLRSEDTAVYYCARQGNYAAYYFDYWGQGTLVTVSS
VL: DIQMTQSPSSLSASVGDRVTITCRASGNIHNFLVWYQQKPGKSPKLLVYNAKTLTDGVPSRFSGSGSGTDYSLTISSLQPEDVATYYCQNFWNVPFTFGSGTKLEIK
B7: BG138P-Bz12 (antibody, human IgG1, V domains shown)
VH: QVQLVQSGAEVKKPGASVKVSCKASGYTFTTYTMHWIKQAPGQGLEWIGYINPGSDYTHYNQKFKDKATLTADKSASTAYMELYSLRSEDTAVYYCARQGNYAAYYFDYWGQGTLVTVSS
VL: DIQMTQSPSSLSASVGDRVTITCRASGNIHNFLVWYQQKPGKSPKLLIYNAKTLTDGVPSRFSGSGSGTQYSLTISSLQPEDVATYYCQNFWNVPFTFGSGTKLEIK
B8: BG138P-Bz2 (antibody, human IgG1, V domains shown)
VH: QVQLVQSGAEVKKPGASVKVSCKASGYTFTTYTMHWIRQAPGQGLEWIGYINPGSDYTHYNQKFKDKATLTADKSASTAYMELYSLRSEDTAVYYCARQGNYAAYYFDYWGQGTLVTVSS
VL: DIQMTQSPSSLSASVGDRVTITCRASGNIHNFLVWYQQKPGKSPKLLVYNAKTLTDGVPSRFSGSGSGTQYSLTISSLQPEDVATYYCQNFWNVPFTFGSGTKLEIK
B9: BG138P-Bz10 (antibody, human IgG1, V domains shown)
VH: QVQLVQSGAEVKKPGASVKVSCKASGYTFTTYTMHWIKQAPGQGLEWIGYINPGSDYTHYNQKFKDKATLTADKSASTAYMELSSLRSEDTAVYYCARQGNYAAYYFDYWGQGTLVTVSS
VL: DIQMTQSPSSLSASVGDRVTITCRASGNIHNFLVWYQQKPGKSPKLLVYNAKTLTDGVPSRFSGSGSGTQYSLTISSLQPEDVATYYCQNFWNVPFTFGSGTKLEIK
B10: BG138P-Bz9 (antibody, human IgG1, V domains shown)
VH: QVQLVQSGAEVKKPGASVKVSCKASGYTFTTYTMHWIKQAPGQGLEWIGYINPGSDYTHYNQKFKDKATLTADTSASTAYMELYSLRSEDTAVYYCARQGNYAAYYFDYWGQGTLVTVSS
VL: DIQMTQSPSSLSASVGDRVTITCRASGNIHNFLVWYQQKPGKSPKLLVYNAKTLTDGVPSRFSGSGSGTQYSLTISSLQPEDVATYYCQNFWNVPFTFGSGTKLEIK
B11: BG138P-Bz7 (antibody, human IgG1, V domains shown)
VH: QVQLVQSGAEVKKPGASVKVSCKASGYTFTTYTMHWIKQAPGQGLEWIGYINPGSDYTHYNQKFKDKATITADKSASTAYMELYSLRSEDTAVYYCARQGNYAAYYFDYWGQGTLVTVSS
VL: DIQMTQSPSSLSASVGDRVTITCRASGNIHNFLVWYQQKPGKSPKLLVYNAKTLTDGVPSRFSGSGSGTQYSLTISSLQPEDVATYYCQNFWNVPFTFGSGTKLEIK
B12: BG138P-Bz3 (antibody, human IgG1, V domains shown)
VH: QVQLVQSGAEVKKPGASVKVSCKASGYTFTTYTMHWIKQAPGQRLEWIGYINPGSDYTHYNQKFKDKATLTADKSASTAYMELYSLRSEDTAVYYCARQGNYAAYYFDYWGQGTLVTVSS
VL: DIQMTQSPSSLSASVGDRVTITCRASGNIHNFLVWYQQKPGKSPKLLVYNAKTLTDGVPSRFSGSGSGTQYSLTISSLQPEDVATYYCQNFWNVPFTFGSGTKLEIK
B13: BG138P-Bz15 (antibody, human IgG1, V domains shown)
VH: QVQLVQSGAEVKKPGASVKVSCKASGYTFTTYTMHWIKQAPGQGLEWIGYINPGSDYTHYNQKFKDKATLTADKSASTAYMELYSLRSEDTAVYYCARQGNYAAYYFDYWGQGTLVTVSS
VL: DIQMTQSPSSLSASVGDRVTITCRASGNIHNFLVWYQQKPGKSPKLLVYNAKTLTDGVPSRFSGSGSGTQYTLTISSLQPEDVATYYCQNFWNVPFTFGSGTKLEIK
B14: BG138P-Bz8 (antibody, human IgG1, V domains shown)
VH: QVQLVQSGAEVKKPGASVKVSCKASGYTFTTYTMHWIKQAPGQGLEWIGYINPGSDYTHYNQKFKDKATLTRDKSASTAYMELYSLRSEDTAVYYCARQGNYAAYYFDYWGQGTLVTVSS
VL: DIQMTQSPSSLSASVGDRVTITCRASGNIHNFLVWYQQKPGKSPKLLVYNAKTLTDGVPSRFSGSGSGTQYSLTISSLQPEDVATYYCQNFWNVPFTFGSGTKLEIK
B15: BG138P-Bz1 (antibody, human IgG1, V domains shown)
VH: QVQLVQSGAEVKKPGASVKVSCKASGYTFTTYTMHWVKQAPGQGLEWIGYINPGSDYTHYNQKFKDKATLTADKSASTAYMELYSLRSEDTAVYYCARQGNYAAYYFDYWGQGTLVTVSS
VL: DIQMTQSPSSLSASVGDRVTITCRASGNIHNFLVWYQQKPGKSPKLLVYNAKTLTDGVPSRFSGSGSGTQYSLTISSLQPEDVATYYCQNFWNVPFTFGSGTKLEIK
B16: BG138P-Bz16 (antibody, human IgG1, V domains shown)
VH: QVQLVQSGAEVKKPGASVKVSCKASGYTFTTYTMHWIKQAPGQGLEWIGYINPGSDYTHYNQKFKDKATLTADKSASTAYMELYSLRSEDTAVYYCARQGNYAAYYFDYWGQGTLVTVSS
VL: DIQMTQSPSSLSASVGDRVTITCRASGNIHNFLVWYQQKPGKSPKLLVYNAKTLTDGVPSRFSGSGSGTQYSLTISSLQPEDVATYYCQNFWNVPFTFGQGTKLEIK
B17: BG138P-Bz0 (antibody, human IgG1, V domains shown)
VH: QVQLVQSGAEVKKPGASVKVSCKASGYTFTTYTMHWIKQAPGQGLEWIGYINPGSDYTHYNQKFKDKATLTADKSASTAYMELYSLRSEDTAVYYCARQGNYAAYYFDYWGQGTLVTVSS
VL: DIQMTQSPSSLSASVGDRVTITCRASGNIHNFLVWYQQKPGKSPKLLVYNAKTLTDGVPSRFSGSGSGTQYSLTISSLQPEDVATYYCQNFWNVPFTFGSGTKLEIK
B18: BG138P-Bz5 (antibody, human IgG1, V domains shown)
VH: QVQLVQSGAEVKKPGASVKVSCKASGYTFTTYTMHWIKQAPGQGLEWIGYINPGSDYTHYNQKFKDRATLTADKSASTAYMELYSLRSEDTAVYYCARQGNYAAYYFDYWGQGTLVTVSS
VL: DIQMTQSPSSLSASVGDRVTITCRASGNIHNFLVWYQQKPGKSPKLLVYNAKTLTDGVPSRFSGSGSGTQYSLTISSLQPEDVATYYCQNFWNVPFTFGSGTKLEIK
B19: BG138P-Bz6 (antibody, human IgG1, V domains shown)
VH: QVQLVQSGAEVKKPGASVKVSCKASGYTFTTYTMHWIKQAPGQGLEWIGYINPGSDYTHYNQKFKDKVTLTADKSASTAYMELYSLRSEDTAVYYCARQGNYAAYYFDYWGQGTLVTVSS
VL: DIQMTQSPSSLSASVGDRVTITCRASGNIHNFLVWYQQKPGKSPKLLVYNAKTLTDGVPSRFSGSGSGTQYSLTISSLQPEDVATYYCQNFWNVPFTFGSGTKLEIK
B20: BG138P-Bz11 (antibody, human IgG1, V domains shown)
VH: QVQLVQSGAEVKKPGASVKVSCKASGYTFTTYTMHWIKQAPGQGLEWIGYINPGSDYTHYNQKFKDKATLTADKSASTAYMELYSLRSEDTAVYYCARQGNYAAYYFDYWGQGTLVTVSS
VL: DIQMTQSPSSLSASVGDRVTITCRASGNIHNFLVWYQQKPGKVPKLLVYNAKTLTDGVPSRFSGSGSGTQYSLTISSLQPEDVATYYCQNFWNVPFTFGSGTKLEIK
B21: BG138P-Hz0 (antibody, human IgG1, V domains shown)
VH: QVQLVQSGAEVKKPGASVKVSCKASGYTFTTYTMHWVRQAPGQRLEWMGYINPGSDYTHYNQKFKDRVTITRDTSASTAYMELSSLRSEDTAVYYCARQGNYAAYYFDYWGQGTLVTVSS
VL: DIQMTQSPSSLSASVGDRVTITCRASGNIHNFLVWYQQKPGKVPKLLIYNAKTLTDGVPSRFSGSGSGTDFTLTISSLQPEDVATYYCQNFWNVPFTFGQGTKLEIK

One may read the EC50 as the concentration needed to bring the measured effect to its halfway point. Read a low EC50 as greater potency. In general, EC50 (read off the curve) refers to the concentration giving half of the maximal effect. The Kd is the constant that tells how readily two partners part at equilibrium. Lower therefore signals tighter binding.

For the first assay, the target named is full-length cynomolgus MUC1 on stably transfected cells (cynomolgus). Kind of assay: FACS on HEK293/cyno MUC1.
Chain of full-length cynomolgus MUC1 on stably transfected cells (cynomolgus) (chain, as listed by the source limits assumed, form in doubt): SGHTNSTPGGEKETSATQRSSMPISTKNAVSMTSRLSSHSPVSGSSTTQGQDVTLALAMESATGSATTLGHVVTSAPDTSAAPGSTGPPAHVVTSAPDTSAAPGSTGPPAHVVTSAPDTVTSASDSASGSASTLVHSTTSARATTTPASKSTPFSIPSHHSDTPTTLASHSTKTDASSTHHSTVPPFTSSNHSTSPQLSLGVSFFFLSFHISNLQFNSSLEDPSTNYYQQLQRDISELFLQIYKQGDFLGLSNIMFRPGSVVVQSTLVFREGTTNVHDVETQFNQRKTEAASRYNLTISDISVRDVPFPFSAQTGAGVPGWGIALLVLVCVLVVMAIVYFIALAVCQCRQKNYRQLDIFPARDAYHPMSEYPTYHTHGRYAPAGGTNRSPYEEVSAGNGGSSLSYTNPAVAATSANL
As to B1, the EC50 was 7.55 nM.

Molecule B2 showed an EC50 of 12.7 nM.

In turn, B3 registered an EC50 of 41.8 nM.

The next assay shares this target. Nature of the assay: FACS (iQue3) on HEK293-cynoMUC1 cells.
B1 displayed an EC50 (read off the curve) of 4 nM.

The target in another assay is cynomolgus MUC1 SEA domain protein (cynomolgus). Nature of the assay: SPR (Biacore 2000), antibody captured, cynoMUC1 SEA analyte, 1:1 binding. On the technique in general: In SPR one partner is held on a chip, and binding of the other changes the refractive index at the surface.
Molecule B4 yielded a Kd of 6.73 nM.

B5 displayed a Kd of 24.4 nM.

For B6, the Kd was 6.7 nM.

B7: the Kd came to 6.56 nM.

For B8, the Kd was determined as 6.96 nM.

B9: the Kd was found to be 6.28 nM.

Regarding B10, the Kd was 6.81 nM.

In the case of B11, the Kd turned out to be 4.35 nM.

For B12, the Kd is 9.04 nM.

In the case of B13, the Kd turned out to be 6.11 nM.

Consider B14, for which the Kd was found to be 13.5 nM.

For the molecule B15, the Kd worked out at 7.18 nM.

The molecule B16 gave a Kd of 5.6 nM.

Consider B17, for which the Kd came out at 6.59 nM.

B18 came in with a Kd of 6.31 nM.

In the case of B19, the Kd was determined as 6.79 nM.

In the case of B20, the Kd was determined as 9.42 nM.

B21: the Kd was found to be 91.7 nM.

The values above are taken from patent US20250382384A1.
